Experimental data from the Human Domainome abundance scans (Beltran et al. 2025).

B1: Protein piccolo, residues 1058 to 1114; numbered along this chain, Q9Y6V0 (parent)
chain: TCPLCKTELNIGSKDPPNFNTCTECKNQVCNLCGFNPTPHLTEIQEWLCLNCQTQRA

Variants of: B1
Assay: abundance fitness (aPCA) (normalised: wild type 0, dead -1); higher = more abundant; growth selection in yeast, the domain comes from the species named
Settings: Homo sapiens

Abundance fitness, by site and new letter:
G12: L -0.039 | Q -0.3 | H -0.182 | F -0.203 | I 0.154 | Y -0.137 | V -0.405 | N -0.611 | D 0.357 | T 0.035 | P 0.027 | E 0.092 | W -0.326 | R -0.05 | K -0.216
P17: Y -0.53 | N -0.189 | V -0.428 | Q -0.114 | T -0.464 | R -0.106 | G -0.097 | M -0.491 | K 0.127 | I -0.448 | A -0.176 | F -0.245 | W -0.199 | L -0.084 | E 0.137 | D -0.122 | S -0.175
N20: V 0.07 | Y -0.337 | G 0.055 | D 0.186 | F -0.051 | I -0.115 | T 0.067 | S -0.082 | E -0.012 | W -0.188 | L -0.024 | Q 0.094 | R 0.078 | A -0.001 | C -0.091 | M 0.188
S13: K 0.209 | M 0.012 | V -0.456 | H -0.079 | L -0.23 | G -0.525 | Q 0.135 | E -0.257 | D -0.463 | N -0.146 | Y -0.227 | C -0.384 | I -0.21 | R -0.264 | F -0.148 | A -0.37 | P -0.062 | T -0.048
C25: S -0.671 | K -0.808 | Q -0.644 | V -0.636 | I -0.669 | T -0.606 | R -0.79 | D -0.834 | M -0.742 | P -0.577 | N -0.66 | A -0.784 | L -0.846 | G -0.682 | Y -0.651 | W -0.879 | H -0.529
D15: G -0.124 | F 0.003 | K -0.014 | A -0.138 | P -0.273 | R -0.257 | Y 0.124 | M -0.053 | N 0.02 | I 0.01 | C -0.152 | H -0.239 | T -0.013 | E -0.248 | V 0.001 | L 0.015 | S -0.051 | W -0.328
Q28: G 0.038 | Y -0.179 | D -0.398 | L -0.078 | I -0.579 | M 0.186 | C 0.018 | N -0.125 | W -0.115 | T -0.015 | V -0.033 | K -0.265 | F -0.185 | E -0.164 | S 0.007 | A 0.09 | H -0.206 | P -0.099 | R 0.004
N27: M -0.088 | D -0.094 | F -0.424 | P -0.317 | Y -0.452 | Q 0.112 | K -0.03 | C 0.169 | A 0.151 | V 0.163 | G 0.138 | I 0.004 | W 0.174 | S 0.12 | H -0.024 | T -0.082 | L 0.157 | R 0.106
E24: H -0.058 | L -0.363 | P -0.517 | W -0.198 | F -0.269 | S -0.13 | V 0.001 | A -0.061 | T 0.034 | N -0.184 | M -0.06 | R -0.01 | D 0.008 | C -0.706 | G -0.012 | Q -0.135 | K -0.017
N31: C 0.093 | E 0.148 | D 0.003
C30: G -0.584 | P -0.807 | T -0.597 | R -0.541 | Y -1.03 | S -0.429 | N -0.612 | Q -0.619 | I -0.887 | E -0.532 | D -0.499 | A -0.562 | W -1 | L -0.971 | F -0.991 | V -0.594 | M -0.734 | H -0.17
N18: K -0.032 | D 0.008 | C -0.219 | A -0.199 | H -0.1 | V -0.348 | M -0.842 | G -0.098 | R -0.079 | T -0.089 | P -0.047 | E -0.104 | F -0.199 | W -0.346 | Q -0.07 | S -0.128 | Y -0.094 | I -0.5
F19: L -0.151 | E -0.153 | Y 0.032 | N 0.04 | I 0.178 | P -0.385 | C -0.347 | A -0.114 | R -0.263 | H -0.022 | M 0.181 | V -0.211 | W -0.083 | T -0.044 | K -0.737 | S -0.277
K14: S -0.126 | N -0.016 | E -0.226 | T 0.013 | V 0.039 | P -0.116 | D 0.003 | A -0.079 | Y -0.554 | Q -0.092 | R 0.042 | C -0.643 | F -0.36 | I -0.653 | L -0.644 | G 0.021 | M -0.128 | H 0.056 | W -0.525
C22: F -0.958 | Q -0.791 | A -0.647 | I -1.04 | G -0.69 | S -0.611 | M -0.74 | P -0.938 | H -0.567 | L -0.675 | E -0.54 | Y -0.899 | R -0.484 | D -0.817 | K -0.818 | W -1.03 | V -0.733 | T -0.736
P16: Y -0.056 | T -0.37 | K -0.248 | S -0.057 | I -0.173 | Q -0.094 | V -0.483 | G -0.354 | H 0.009 | F 0.024 | C -0.045 | M -0.09 | E -0.187 | W -0.541 | N -0.229 | L -0.095 | A -0.37 | R -0.179
T21: S 0.083 | F -0.109 | M 0.298 | G -0.053 | C 0.032 | P -0.169 | D -0.078 | W 0.106 | H 0.013 | E 0.036 | V 0.091 | Y 0.135 | K 0.198 | L -0.098 | A 0.004
V29: F -0.217 | W -0.131 | S -0.265 | E -0.178 | T -0.118 | R -0.148 | K -0.326 | H -0.1 | M -0.039 | L -0.284 | Y -0.082 | N -0.199 | Q -0.212 | G -0.198 | P -0.545 | I -0.241 | A -0.064 | D -0.32 | C 0.028
T23: F 0.288 | L -0.163 | N -0.342 | S 0.003 | H -0.18 | D 0.041 | R -0.016 | Y 0.024 | M 0.062 | K -0.031 | V 0.067 | C 0.041 | P -0.126 | Q -0.36 | I -0.187 | A 0.097 | E -0.043
K26: F -0.025 | L 0.103 | D 0.071 | Y 0.148 | V 0.065 | M 0.335 | T 0.195 | E 0.045 | I 0.006 | C -0.026 | W -0.022 | N 0.09 | G 0.139 | P -0.148 | Q 0.04 | R 0.072 | S 0.119 | H -0.253
